Source: the nanobody polyreactivity screen of Harvey et al. (2022)

test: yeast display, Sf9 membrane polyspecificity reagent, FACS + sequencing; frameworks hold sequencing errors
Outline: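 A synthetic nanobody library was expressed on Saccharomyces cerevisiae BJ5465 by galactose induction for 36–48 hours. The library was stained for 1 hour at 4 °C with 10% biotinylated, detergent-solubilized Sf9 membrane reagent and enriched with streptavidin microbeads before FACS. Low and high (top ~1%) gates were set on anti-HA fluorescence for expression and streptavidin fluorescence for reagent binding, and each polyreactivity label reflects the gate of origin.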

| Sequence | polyreactivity (PSR sort gate) |
| --- | --- |
| QVQLVESGGGLVQAGGSLRLSCAPSGITFFWKAKGWYRQAPGKERELVAAISSGAGTTYADSVKGRFTISRDNAKNTVYLQMNSLKPEDTAVYFCAARRYRYAYGPYNYWGQGSQVTVSS | low polyreactivity |
| QVQLVESGGGLVQAGGSLRLSCAPSGITFSHYAMGWYRQAPGKERELVAGITWSGGRTYYADSVKGRFTISRDNAKNTVYLQMNSLKPEDTAVYYCAPIHRTGYDMDYWGLGTQVTVSS | low polyreactivity |
| QVQLVESGGGLVQAGGSLRLSCAPSGITFTHYVMGWYRQAAGKERELVAAITSGGRTNYADSVKGRFTISRDNAKNTVYLQMNSLIPEDTAVYYCNAVKRVGDYWGRSFDYDYWGQGTKVTVSS | high polyreactivity |
| QVQLVESGGGLVQAGGSLRLSCAPSGRIFSFNTMVLYRHAPGTEREFVATIRYSGGSTYADSVKGRFTISRDNAKNTVYLQMNSLKPEDTAVYYCAAAWWSYKFNRDFDYWGQGTQVTVSS | low polyreactivity |
| QVQLVESGGGLVQAGGSLRLSCAPSGRIFSYFAMGWYRQAPGKERELVAAISGNGGSTYYADSVKGRFTISRDNAKNTVYLQMNSLKPEDTAVYYCAADWWSSDWAYLYPYSYDYWGQGTQVTVSS | low polyreactivity |
| QVQLVESGGGLVQAGGSLRLSCAPSGRIFTEYVMGWYRQAPGKERELVAAAITRGGSTNYADSVKGRFTISRDNAKNTVYLQMISLKPEDTAVYYFNKDDWPFSRQLYTGKYDSWGQGTQVTVSS | low polyreactivity |
| QVQLVESGGGLVQAGGSLRLSCAPSGRIFTGYAMGWYRPEPGQEWELVAASTSSGGSTYYADSVKGRVTISRDYAKNTVYLQMNSLKPEDTAVYYCNKVGRPRYNYWGQGTEVTVSS | high polyreactivity |
| QVQLVESGGGLVQAGGSLRLSCAPSGRIIFYNAMGWYRQAPGKERELVAAISIGGRTYYADSVKGRFTISRDNAKNTVYLQMNSLKPEDTAVYYCAALGYPYLRSGYWGQGTQVTVSS | high polyreactivity |
| QVQLVESGGGLVQAGGSLRLSCAPSGRIILRYTMGRYRQARGKERQLVAAISARTTGTYYADSVKGRFTISRDNAKNTFYLQLNSLKPEDTAVYYCAAKCKLSRVLYSWGQGTQVTVSS | low polyreactivity |
| QVQLVESGGGLVQAGGSLRLSCAPSGRSFASYAMGWYRQAPGKERELVAAISKSGGRTYYADSVKGRFTISRDNAKNTVYLQMNSLKPEDTAVYYCAAYFWTRSGTPNYDYWGQGTQVTVSS | high polyreactivity |
| QVQLVESGGGLVQAGGSLRLSCAPSGRTFLAYAMGWYRQAPGKEREVVAAISSSGSTTYYADSVKGRFTISRDNAKNTVYLQMNSLKPEDTAVYYCAASNGYRSSYYRYDYWGQGTQVTVSS | low polyreactivity |
| QVQLVESGGGLVQAGGSLRLSCAPSGRTFQQYAMGCYRQAPGKDREFVAAITFSGGTTYFADSVKGRFTISRDNAKNTVYFQMNSLKPEDTAVYYCAADIYYWSFYYSRYDYWGQGTQVTVSS | high polyreactivity |
| QVQLVESGGGLVQAGGSLRLSCAPSGRTFSVNDMGWYRQAPGKERELVAAISFSGGSTYYADSVKGRFTISRDNAKNTVYLQMNSLKPEDTAVYYCAAEAYPSWFYVITGFGIYDYWGQGTQVTVSS | high polyreactivity |
| QVQLVESGGGLVQAGGSLRLSCAPSGRTFWTNAMGWYRQAPGKERELVAAIRNSGGRTYYADSVKGRFTISRDNAKNTVFLQMNSLKPEDSAVYYCNARSSIRPRQGGYEHWGQGTQVTVSS | low polyreactivity |
| QVQLVESGGGLVQAGGSLRLSCAPSGRTLFHYAMGWYRQAPGKERELVAAISSGGRTNYADSVKGRFTISRDNAKNTVYLQMNSLKPEDTAVYYCAARRFYLQHGFEYWGQGTQVTVSS | high polyreactivity |
| QVQLVESGGGLVQAGGSLRLSCAPSGRTVRYNAMGWYRQAPGKERELVARITWSGGRTYYADSVKGRFTISRDNAKNTVYLQMNSLKPEDTAVNYGNAPSIAGYAEYNSHDYWGQGTQVTVSS | high polyreactivity |
| QVQLVESGGGLVQAGGSLRLSCAPSGSIFDYYVRGWSRQAPGKERELVAAISWSGASTYYADSVKGRFTISRDNAKNTVYLQITSLKPEDTAVYYCAADYGVNTLIDYDYWGQGTQVTVSS | low polyreactivity |
| QVQLVESGGGLVQAGGSLRLSCAPSGSIFERYAMGWYRHAPGKERELVAAISWRGGSTYYADSVKGRFTISRDNAKNTVYLQMNSLIQEDTAVYYCAADSRTCYYYWGQGTQVTVST | high polyreactivity |
| QVQLVESGGGLVQAGGSLRLSCAPSGSIFGGYAMGWYRQAPGKERELVAAITWGGGSTYYADSVKGRFTISRDNAKNTVYLQMISLKPEATAVYYCAADRSWYDWEDDYWGQGTQVTVSS | low polyreactivity |
| QVQLVESGGGLVQAGGSLRLSCAPSGSIFNRNVMGWYRQAPGKERELVAAITRGGRTSYADSVKGRFTISRDNAKNTVYLQMNSLKPEDTAVYYCAARRGYWVVYWGQGTQVTVSS | high polyreactivity |
| QVQLVESGGGLVQAGGSLRLSCAPSGSIFPSYAMGWYRQAPGKERELVAAISRSAGSTYYADSVKGRFTISRDNAKNTVYLQMNSLKPEDTAVYYCAADGYSSRYGYDYWGQGTQVTVSS | low polyreactivity |

| Sequence | polyreactivity (PSR sort gate) |
| --- | --- |
| QVQLVESGGGLVQAGGSLRLSCAPSGSIFRGYTMGWYRQAPVKERELVAAISWSGGSTYYADSVKGRFTISRDNAKNTVYLQMNSLKPEDTAVYYCAAGDYYHRIFLWYDFWGQGTQVNVSS | low polyreactivity |
| QVQLVESGGGLVQAGGSLRLSCAPSGSIFSYYDMGGYRQAPGKERELVAGISRGGSTNYADSVKGRFTISRDNAKNTVYLQMNSLKPEDTAVYYCNADQSSRTFPFRLSRRSWLYGYWGQGSQVTVSS | low polyreactivity |
| QVQLVESGGGLVQAGGSLRLSCAPSGSIFYINAMAWYRQAPGKERELVAAITSDGSTYYADSVKGRFTISRDNAKNTVYLQMNSLKPVDTAVYYFAADMTSDQYLYYWYWFYSWGQGTQVTVSS | low polyreactivity |
| QVQLVESGGGLVQAGGSLRLSCAPSGSIFYVYARGWYRQAPGKERQLVATIPRVGRTYYADSVKGRFTISRDNAKNTVYLQRNSLKPEDTAVYYCATRYGGRSYKYDYWGQGTQVTVSS | high polyreactivity |
| QVQLVESGGGLVQAGGSLRLSCAPSGSIVRGYAMAWYRQAPGKERELVAAINSSGTRTYYADSVKGRFTISRDNAKNTVYFQLYSLKPEDSAVYYCAARAVSEYFVVPFYYWGQGTQVTVSS | high polyreactivity |
| QVQLVESGGGLVQAGGSLRLSCAPSGSTFEHYTMGWYRQAPGKERELVAAISRRGGRTYYADSVKGRFTISRDNAKNTVYLQMNSLKPEDTAVYYCNAPVYTRKSIDYDYCGQGTQVTVSS | high polyreactivity |
| QVQLVESGGGLVQAGGSLRLSCAPSGSTFFWYSMGWYRQAPGKERELVARISRRSGSTYYADSVKGRFTISRDNAKNTVYLQMNSLIPEDTAVYYCNARAVGAPGSVRYDYWGQGTQVTVSS | low polyreactivity |
| QVQLVESGGGLVQAGGSLRLSCAPSGSTFLSYVMGWYRQAPGKERELVAAITGTGGRTYYADSVKGRFTISRDNAKNTVYLQMNCLKTEDTAVYYCTAYRNHGYDYWGQGTQVTVSS | high polyreactivity |
| QVQLVESGGGLVQAGGSLRLSCAPSGSTFRTYTMGWYIQAPGKERELVAAITGRGGSTYYADSVKGRFTISRDTAKNTVYFQMNSLKREDTAVYYCAALYGGQTKHDFWGQGTQVTVSS | low polyreactivity |
| QVQLVESGGGLVQAGGSLRLSCAPSGSTFYSYVMGWYRQATGKERELVAVISNDGSTNYADSVKGRFTISRDNAKNTVYLQMNSLKPEDTAVYYCAALKFVRAYRYYYWGQGTQVTVSS | low polyreactivity |
| QVQLVESGGGLVQAGGSLRLSCAPSGSTINQYAMGWYRQAPGKESELVAAITRRGGSTYYADSVKGRFTISRDNAKNTVYLQMNSLKPEDTAVYYCAAAYPYTTVSYDYWGQGTQVTVSS | high polyreactivity |
| QVQLVESGGGLVQAGGSLRLSCAPSGSTIVRYAMGWYRQAPGKERELVAAISGSGGTTYYADSVKGRFTISRDNAKNTVYLQMNSLKPEDTAVYYCATRISAMDYWGQGTQVTVSS | high polyreactivity |
| QVQLVESGGGLVQAGGSLRLSCAPSGSTLYRNAMGWYRQAPGQDRELVAAINYRGTRTYDADSVKGRFTISRDTAKNTVYLQMNSLQPEDTAVYFCAKDYSQFVTYPYDYWGQGTQVTVSS | low polyreactivity |
| QVQLVESGGGLVQAGGSLRLSCASSGFIFSSYAMGWYRQAPGKERELVAAISLRSTTTYYADSVKGRFTISRDNAKNSVYLQMNSLKPEDTAVDYCAKGGSRDRYGYWGQGTQVTVSS | high polyreactivity |
| QVQLVESGGGLVQAGGSLRLSCASSGFIFWYYAMGWYRQAPGKERELVAAISSGDSKNYADSVKGRFTISRDNAKNTVYLQMNCLKPEDTAVYYCAARQPRTQAVYEGYYWGHGTQVTVSS | high polyreactivity |
| QVQLVESGGGLVQAGGSLRLSCASSGFIIYSYAMGWYRQAPGKERELVAVISSRGGTTYYADSVKGRFTISRDNAKNTVYLQMNSLKPEDTAVYYCAADVWGPYDYWGQGTQVTVSS | low polyreactivity |
| QVQLVESGGGLVQAGGSLRLSCASSGFTFGYYTKGWYRQAPGKERELVAAITSGGGTYYADSVKGRFTISRDNAKNTVYLQMKSLKPEDTAVYYCATTPGLYKVSSRYGYWGQGTQVTVSS | high polyreactivity |
| QVQLVESGGGLVQAGGSLRLSCASSGFTFTANDMGWYRKAPGKERELVAAISWSGDSTYYADSVKGRFTISRDNAKNTVYLQMNRLIPEDTAVYYCNVVFEFLSDGYYSYDYWVQGTQVTVSS | low polyreactivity |
| QVQLVESGGGLVQAGGSLRLSCASSGFTFYKYAMGWYRQAPGKERELVAAITRGDSTYYADSVKGRFTISRDNAKNTVYLQMNSLKPEDTAVYYCNAVFSYRLFNYWGQGTQVTVSS | high polyreactivity |
| QVQLVESGGGLVQAGGSLRLSCASSGFTFYSYAMGWYRQAPGKERELVAAISKRGGSTYYADSVKGRFTISRDNAKNTVYLQMNSLQPEDTAVYYCNADYPYYYGYDYWGQGTQVTVSS | high polyreactivity |
